B1: ID1-ID2a (FCR3, Baculo) (other)
chain: NYIKGDPYFAEYATKLSFILNPSDANNPSGETANHNDEACNCNESGISSVGQAQTSGPSSNKTCITHSSIKTNKKKECKDVKLGVRENDKDLKICVIEDTSLSGVDNCCCQDLLGILQENCSDNKRGSSSNDSCDNKNQDECQKKLEKVFASLTNGYKCDKCKSGTSRSKKKWIWKKSSGNEEGLQEEYANTIGLPPRTQSLYLGNLPKLENVCEDVKDINFDTKEKFLAGCLIVSFHEGKNLKKRYPQNKNSGNKENLCKALEYSFADYGDLIKGTSIWDNEYTKDLELNLQNNFGKLFGKYIKKNNTAEQDTSYSSLDELRESWWNTNKKYIWTAMKHGAEMNITTCNADGSVTGSGSSCDDIPTIDLIPQYLRFLQEWVENFCEQRQAKVKDVITNCKSCKESGNKCKTECKTKCKDECEKYKKFIEACGTAGGGIGTAGSPWSKRWDQIYKRYSKHIEDAKRNRKAGTKNCGTSSTTNAAASTDENKCVQSDIDSFFKHLIDIGLTTPSSYLSNVLDDNICGADKAPWTTYTTYTTTEKCNKERDKSKSQSSDTLVVVNVPSPLGNTPYRYKYACQCKIPTNEETCDDRKEYMNQWSCGSARTMKRGYKNDNYELCKYNGVDVKPTTVRSNSSKLD
notes: The primers (NYIKGD ... NSSKLD) match its two ends; not shown: V5 and His tag at the C-terminal (modified pAcGP67-A)
B2: ID1-ID2a (FCR3, E. coli) (other)
chain: B1 chain
notes: Made in E. coli
B3: DBL1-ID2a (FCR3, Baculo) (other)
chain: HSDSGKYDPCEKKLPPYDDNDQWKCQQNSSDGSGKPENICVPPRRERLCTYNLENLKFDKIRDNNAFLADVLLTARNEGEKIVQNHPDTNSSNVCNALERSFADLADIIRGTDQWKGTNSNLEKNLKQMFAKIRENDKVLQDKYPKDQKYTKLREAWWNANRQKVWEVITCGARSNDLLIKRGWRTSGKSDRKKNFELCRKCGHYEKEVPTKLDYVPQFLRWLTEWIEDFYREKQNLIDDMERHREECTREDHKSKEGTSYCSTCKDKCKKYCECVKKWKTEWENQENKYKDLYEQNKNKTSQKNTSRYDDYVKDFFEKLEANYSSLENYIKGDPYFAEYATKLSFILNPSDANNPSGETANHNDEACNCNESGISSVGQAQTSGPSSNKTCITHSSIKTNKKKECKDVKLGVRENDKDLKICVIEDTSLSGVDNCCCQDLLGILQENCSDNKRGSSSNDSCDNKNQDECQKKLEKVFASLTNGYKCDKCKSGTSRSKKKWIWKKSSGNEEGLQEEYANTIGLPPRTQSLYLGNLPKLENVCEDVKDINFDTKEKFLAGCLIVSFHEGKNLKKRYPQNKNSGNKENLCKALEYSFADYGDLIKGTSIWDNEYTKDLELNLQNNFGKLFGKYIKKNNTAEQDTSYSSLDELRESWWNTNKKYIWTAMKHGAEMNITTCNADGSVTGSGSSCDDIPTIDLIPQYLRFLQEWVENFCEQRQAKVKDVITNCKSCKESGNKCKTECKTKCKDECEKYKKFIEACGTAGGGIGTAGSPWSKRWDQIYKRYSKHIEDAKRNRKAGTKNCGTSSTTNAAASTDENKCVQSDIDSFFKHLIDIGLTTPSSYLSNVLDDNICGADKAPWTTYTTYTTTEKCNKERDKSKSQSSDTLVVVNVPSPLGNTPYRYKYACQCKIPTNEETCDDRKEYMNQWSCGSARTMKRGYKNDNYELCKYNGVDVKPTTVRSNSSKLD
notes: also called DBL1X-ID2a; wild-type protein; not shown: V5 and His tag at the C-terminal (modified pAcGP67-A)
B4: DBL1-ID2a (FCR3, E. coli) (other)
chain: B3 chain
notes: Made in E. coli
B5: DBL1X-DBL2Xb (FCR3, E. coli, as the column stands) (other)
chain: HSDSGKYDPCEKKLPPYDDNDQWKCQQNSSDGSGKPENICVPPRRERLCTYNLENLKFDKIRDNNAFLADVLLTARNEGEKIVQNHPDTNSSNVCNALERSFADLADIIRGTDQWKGTNSNLEKNLKQMFAKIRENDKVLQDKYPKDQKYTKLREAWWNANRQKVWEVITCGARSNDLLIKRGWRTSGKSDRKKNFELCRKCGHYEKEVPTKLDYVPQFLRWLTEWIEDFYREKQNLIDDMERHREECTREDHKSKEGTSYCSTCKDKCKKYCECVKKWKTEWENQENKYKDLYEQNKNKTSQKNTSRYDDYVKDFFEKLEANYSSLENYIKGDPYFAEYATKLSFILNPSDANNPSGETANHNDEACNCNESGISSVGQAQTSGPSSNKTCITHSSIKTNKKKECKDVKLGVRENDKDLKICVIEDTSLSGVDNCCCQDLLGILQENCSDNKRGSSSNDSCDNKNQDECQKKLEKVFASLTNGYKCDKCKSGTSRSKKKWIWKKSSGNEEGLQEEYANTIGLPPRTQSLYLGNLPKLENVCEDVKDINFDTKEKFLAGCLIVSFHEGKNLKKRYPQNKNSGNKENLCKALEYSFADYGDLIKGTSIWDNEYTKDLELNLQNNFGKLFGKYIKKNNTAEQDTSYSSLDELRESWWNTNKKYIWTAMKHGAEMNITTCNADGSVTGSGSSCDDIPTIDLIPQYLRFLQEWVENFCEQRQAKVKDVITNCKSCKESGNKCKTECKTKCKDECEKYKKFIEACGTAGGGIGTAGSPWSKRWDQIYKRYSKHIEDAKRNRKAGTKNCGTSSTTNAAASTDENKCVQSDIDSFFKHLIDIGLTTPSSYLSNVLDDNICGADKAPWTTYTTYTTTEKCNKERDKSKSQSSDTLVVVNVPSPLGNTPYRYKY
notes: The value stands in column 4 (E. coli, under FCR3); The column may be shifted, in which case the protein could be the 3D7 baculovirus one; Range derived by me from the FCR3 primers (HSDSGK ... PYRYKY)
B6: DBL1-ID2a (3D7, Baculo) (other)
chain: HSDSGTNDPCDRIPPPYGDNDQWKCAIILSKVSEKPENVFVPPRRQRMCINNLEKLNVDKIRDKHAFLADVLLTARNEGERIVQNHPDTNSSNVCNALERSFADIADIIRGTDLWKGTNSNLEQNLKQMFAKIRENDKVLQDKYPKDQNYRKLREDWWNANRQKVWEVITCGARSNDLLIKRGWRTSGKSNGDNKLELCRKCGHYEEKVPTKLDYVPQFLRWLTEWIEDFYREKQNLIDDMERHREECTSEDHKSKEGTSYCSTCKDKCKKYCECVKKWKSEWENQKNKYTELYQQNKNETSQKNTSRYDDYVKDFFKKLEANYSSLENYIKGDPYFAEYATKLSFILNSSDANNPSEKIQKNNDEVCNCNESGIASVEQEQISDPSSNKTCITHSSIKANKKKVCKHVKLGVRENDKDLRVCVIEHTSLSGVENCCCQDFLRILQENCSDNKSGSSSNGSCNNKNQEACEKNLEKVLASLTNCYKCDKCKSEQSKKNNKNWIWKKSSGKEGGLQKEYANTIGLPPRTQSLCLVVCLDEKGKKTQELKNIRTNSELLKEWIIAAFHEGKNLKPSHEKKNDDNGKKLCKALEYSFADYGDLIKGTSIWDNEYTKDLELNLQKIFGKLFRKYIKKNNTAEQDTSYSSLDELRESWWNTNKKYIWLAMKHGAGMNSTTCCGDGSVTGSGSSCDDIPTIDLIPQYLRFLQEWVEHFCKQRQEKVKPVIENCKSCKESGGTCNGECKTECKNKCEVYKKFIEDCKGGDGTAGSSWVKRWDQIYKRYSKYIEDAKRNRKAGTKNCGPSSTTNAAENKCVQSDIDSFFKHLIDIGLTTPSSYLSIVLDDNICGADKAPWTTYTTYTTTEKCNKETDKSKLQQCNTAVVVNVPSPLGNTPHGYKYACQCKIPTNEETCDDRKEYMNQWSCGSARTMKRGYKNDNYELCKYNGVDVKPTTVRSNSSKLD
notes: also called DBL1X-ID2a; not shown: V5 and His tag at the C-terminal (modified pAcGP67-A)
B7: ID1-DBL2Xb (3D7, Baculo) (other)
chain: LSFILNSSDANNPSEKIQKNNDEVCNCNESGIASVEQEQISDPSSNKTCITHSSIKANKKKVCKHVKLGVRENDKDLRVCVIEHTSLSGVENCCCQDFLRILQENCSDNKSGSSSNGSCNNKNQEACEKNLEKVLASLTNCYKCDKCKSEQSKKNNKNWIWKKSSGKEGGLQKEYANTIGLPPRTQSLCLVVCLDEKGKKTQELKNIRTNSELLKEWIIAAFHEGKNLKPSHEKKNDDNGKKLCKALEYSFADYGDLIKGTSIWDNEYTKDLELNLQKIFGKLFRKYIKKNNTAEQDTSYSSLDELRESWWNTNKKYIWLAMKHGAGMNSTTCCGDGSVTGSGSSCDDIPTIDLIPQYLRFLQEWVEHFCKQRQEKVKPVIENCKSCKESGGTCNGECKTECKNKCEVYKKFIEDCKGGDGTAGSSWVKRWDQIYKRYSKYIEDAKRNRKAGTKNCGPSSTTNAAENKCVQSDIDSFFKHLIDIGLTTPSSYLSIVLDDNICGADKAPWTTYTTYTTTEKCNKETDKSKLQQCNTAVVVNVPSPLGNTPHGYKY
notes: The start at 16 is derived by me from the forward primer (LSFILN); not shown: V5 and His tag at the C-terminal (modified pAcGP67-A)
B8: ID1-ID2a (3D7, Baculo) (other)
chain: LSFILNSSDANNPSEKIQKNNDEVCNCNESGIASVEQEQISDPSSNKTCITHSSIKANKKKVCKHVKLGVRENDKDLRVCVIEHTSLSGVENCCCQDFLRILQENCSDNKSGSSSNGSCNNKNQEACEKNLEKVLASLTNCYKCDKCKSEQSKKNNKNWIWKKSSGKEGGLQKEYANTIGLPPRTQSLCLVVCLDEKGKKTQELKNIRTNSELLKEWIIAAFHEGKNLKPSHEKKNDDNGKKLCKALEYSFADYGDLIKGTSIWDNEYTKDLELNLQKIFGKLFRKYIKKNNTAEQDTSYSSLDELRESWWNTNKKYIWLAMKHGAGMNSTTCCGDGSVTGSGSSCDDIPTIDLIPQYLRFLQEWVEHFCKQRQEKVKPVIENCKSCKESGGTCNGECKTECKNKCEVYKKFIEDCKGGDGTAGSSWVKRWDQIYKRYSKYIEDAKRNRKAGTKNCGPSSTTNAAENKCVQSDIDSFFKHLIDIGLTTPSSYLSIVLDDNICGADKAPWTTYTTYTTTEKCNKETDKSKLQQCNTAVVVNVPSPLGNTPHGYKYACQCKIPTNEETCDDRKEYMNQWSCGSARTMKRGYKNDNYELCKYNGVDVKPTTVRSNSSKLD
notes: not shown: V5 and His tag at the C-terminal (modified pAcGP67-A)

target: T1, CSPG (bovine) (D8428, Sigma) (bovine, UniProt P21793 31-360, carries chondroitin sulfate A (CSA) glycosaminoglycan chain(s); the filing attributes the binding of VAR2CSA to this glycan); experiment: quartz crystal microbalance (Attana A100), CSPG coated, 1:1 fit
T1 construct: also called chondroitin sulfate proteoglycan; CSA proteoglycan
T1 sequence (P21793 31-360): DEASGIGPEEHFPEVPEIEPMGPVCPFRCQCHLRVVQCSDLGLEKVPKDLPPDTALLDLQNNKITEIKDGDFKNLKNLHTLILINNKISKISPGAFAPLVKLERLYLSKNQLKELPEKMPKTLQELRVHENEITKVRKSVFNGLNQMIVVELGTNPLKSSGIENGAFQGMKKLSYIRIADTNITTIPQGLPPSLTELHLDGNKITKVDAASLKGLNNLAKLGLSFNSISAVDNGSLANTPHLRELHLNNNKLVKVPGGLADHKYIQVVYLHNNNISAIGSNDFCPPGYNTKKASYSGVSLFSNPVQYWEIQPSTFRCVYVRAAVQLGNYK

First: B1
Second: B2
The Kd of the first is 2.4-fold lower: 7.6 nM for the first, 18.3 nM for the second.

Going from B3 to B4, the Kd falls from 8 nM to 3.5 nM (2.3-fold). The second binds more tightly here.

Going from B5 to B6, the Kd rises from 14.6 nM to 29.5 nM (2-fold).

Compared with B7, B8 is 3.8-fold lower in Kd: 21.8 nM for the first, 5.7 nM for the second. The second binds more tightly here.

Reference: patent US20170016905A1 (VAR2 PHARMACEUTICALS, published 2017)
